The record followed here is article PMC4500961, “H2O2 production rate in Lactobacillus johnsonii is modulated via the interplay of a heterodimeric flavin oxidoreductase with a soluble 28 Kd PAS domain containing protein” (Frontiers in Microbiology, 2015).

One data set has as its target T1, FRedA/B (Lactobacillus johnsonii, UniProt A0A7D9N7Z8+A0A7D9N811).
T1 construct: gene T285_08435; full-length, both chains N-terminal His6, co-expressed and co-purified from E. coli BL21 (p15TV-fredA + pCDF-his-fredB); heterodimer 43 kDa
Briefly: isothermal titration calorimetry. The class given is binding. The source says: isothermal titration calorimetry on FRedA/B | FMN binding to the FRedA/B heterodimer is an exergonic reaction
Background: Isothermal titration calorimetry measures the heat released or taken up as one component is titrated into another.

Data set [1] concerns the target FRedB fused to the zinc finger DNA-binding domain of murine Zif268 (pACTR-fredB) (Lactobacillus johnsonii N6.2). Briefly: two-hybrid; bacterial two-hybrid in E. coli KDZifΔZ (ω subunit fusion and Zif268 fusion), 10 μM IPTG, β-galactosidase activity with CPRG in arbitrary units; static or aerobic growth.
Data set [2] deals with His6-FRedB (putative FMN reductase FRedB of Lactobacillus johnsonii N6.2, from p15TV-fredB, individually purified) (Lactobacillus johnsonii N6.2).
Substrate in data set [3]: NC(=O)C1=CN([C@@H]2O[C@H](COP(=O)(O)OP(=O)(O)OC[C@H]3O[C@@H](n4cnc5c(N)ncnc54)[C@H](O)[C@@H]3O)[C@@H](O)[C@H]2O)C=CC1
Briefly: purified protein. The class given is biochemical, Lactobacillus johnsonii. Conditions: fixed flavin electron acceptor, 100 mM MES pH 5.5, 37 °C.

Substrate in data set [4]: Cc1cc2nc3c(=O)[nH]c(=O)nc-3n(C[C@H](O)[C@H](O)[C@H](O)COP(=O)(O)OP(=O)(O)OC[C@H]3O[C@@H](n4cnc5c(N)ncnc54)[C@H](O)[C@@H]3O)c2cc1C
Briefly: purified protein. The class given is biochemical, Lactobacillus johnsonii. Conditions: fixed NADH, 100 mM MES pH 5.5, 37 °C.

Substrate in data set [5]: Cc1cc2nc3c(=O)[nH]c(=O)nc-3n(C[C@H](O)[C@H](O)[C@H](O)COP(=O)(O)O)c2cc1C
Briefly: purified protein. Format: biochemical, Lactobacillus johnsonii. Conditions: fixed NADH, 100 mM MES pH 5.5, 37 °C.

The Kd is the equilibrium constant for the complex coming apart. `Cc1cc2nc3c(=O)[nH]c(=O)nc-3n(C[C@H](O)[C@H](O)[C@H](O)COP(=O)(O)O)c2cc1C` [FMN] displayed a Kd on FRedA/B of 1960 ± 130 nM.

“FRedA fused to the ω subunit of E. coli RNA polymerase (pBR-fredA) (natural protein)” displayed a β-galactosidase activity in data set [1] of 11700 AU.

On to “His6-FRedA (putative FMN reductase FRedA of Lactobacillus johnsonii N6.2, from p15TV-fredA) (natural protein)”, for which, in data set [2], the initial rate (V0) of NADH oxidase activity, FRedB preincubated with purified LjPAS (reduced by 50%) (μmol min^-1 mg^-1) was 2.6; the initial rate (Vo) of NADH oxidase activity, both monomers combined and incubated with FMN before addition of NADH (μmol min^-1 mg^-1) is 31.3; the initial rate of NADH oxidase activity, FRedA preincubated with FMN before addition of FRedB (μmol min^-1 mg^-1) came out at 0.27; the initial rate of NADH oxidase activity, FRedB preincubated with FMN before addition of FRedA (μmol min^-1 mg^-1) worked out at 6.48. Moreover, the initial rate of NADH oxidase activity, purified LjPAS added after FRedA and FRedB were preincubated with FMN (not significantly slower) (μmol min^-1 mg^-1) in data set [2] was 25.2.

B1: FRedA/B (Lactobacillus johnsonii N6.2) (protein)
chain 1: MKLLAIVGTNADFSYNRFLDQFMAKRYKDQAEIEVYEIADLPRFKKEAQPDSKVEEFKNKIREADGVIFATPEYDHGIPSALKSAMEWTGSHAQGNADVMKMKPAMVLGTSYGIQGASRAQEEMREILLSPDQSANVLPGNEVLIGHAADKFDKNTGDLLDQETIHAIDLAFNNFVKFVEQAQK
chain 2: MKLFAIVGSNADHSYNRDLLNFIKKHFTDRYDIELGEVKDLPMFKEGVKEPAAVASFAKKVADADAVLISTPEQQHSVPSSLKSALEWLSSAEHPFKDKPVVIVGTSVLPQGSARGQSHLKLVLSSPGFGAKVFNGDEFMMGTAPEQFDENGNLPAGTVKFLDHFFDEFDSFYAEVSK
notes: full-length, both chains N-terminal His6, co-expressed and co-purified from E. coli BL21 (p15TV-fredA + pCDF-his-fredB); heterodimer 43 kDa
By Km is commonly meant the substrate concentration at which the rate is half of its maximum. What is called Vmax is the rate approached at saturating substrate. By kcat is commonly meant the maximal rate divided by the concentration of active sites. As a reminder, the kcat/Km is the turnover number divided by the Michaelis constant. As to B1, in the data set “purified protein [3]”, the Km came to 59.68 ± 5.8 µM, the Vmax was 185 µmol/min/mg, the kcat turned out to be 132 s⁻¹ and the specificity constant (kcat/Km) was determined as 2.22e+06 M⁻¹ s⁻¹. For the same molecule, in the data set “purified protein [4]”, the Km worked out at 19.85 ± 2.5 µM, the Vmax came to 67 µmol/min/mg, the kcat amounted to 48 s⁻¹ and the kcat/Km is 2.42e+06 M⁻¹ s⁻¹. Further, in the data set “purified protein [5]”, the Km turned out to be 20.36 ± 2.6 µM, the maximum rate (Vmax) was found to be 204 µmol/min/mg, the kcat was 146 s⁻¹ and the kcat/Km is 7.16e+06 M⁻¹ s⁻¹.
